# According to the RNAGym collection of RNA variant scans (doi:10.7554/elife.80360):
# B1: HDV Ribozyme (parent)
# chain: GGCCGGCAUGGUCCCAGCCUCCUCGCUGGCGCCGGCUGGGCAACAUUCCGAGGGGACCGUCCCCUCGGUAAUGGCGAAUGGGACCCA
# Variants of: B1
# Test: self-cleavage, relative activity (ratio to wild type); higher = more cleavage; co-transcriptional
row,Variant,self-cleavage
1,G35C U72A,0
2,G35C G39A,0.178
3,G35A G76C,0.708
4,G35A G76U,0.902
5,G35C C84U,0.256
6,G35A C85A,0.644
7,G35A C85G,0.643
8,G35A U72A,0.208
9,G35A G74A,0.157
10,G35A G74C,0.208
11,G35C C85U,0.308
12,G35A A87C,0.444
13,G35A A87G,0.473
14,G35A G53C,0.65
15,G35C A87C,0.0866
16,G35C A87G,0.205
17,G35C G55U,0.0615
18,G35C G55A,0.342
19,G35C G55C,0.366
20,G35A G67A,0.328
21,G35A G67C,0.564
22,G35A G67U,0.361
23,G35C G82U,0.0723
24,G35C G82C,0.0519

row,Variant,self-cleavage
1,G35C C62A,0.277
2,G35A C63U,0.91
3,G35A C63A,0.332
4,G35C C58A,0.175
5,G35C G50A,0.0528
6,G35C G50U,0.272
7,G35C U37A,0
8,G35C U37G,0.0504
9,G35C C63A,0.259
10,G35C C63U,0.492
11,G35C C75U,0.0692
12,G34U U79A,0.138
13,G34U U79C,0.201
14,G35A U60A,0.596
15,G35A U60C,0.554
16,G35C G81A,0.0332
17,G35C G81C,0.19
18,G35C C57U,0.185
19,G35C G68C,0.356
20,G35C G74A,0.0779
21,G35C A43G,0.111
22,G35C A43C,0.17
23,G35C A51U,0.396
24,G35A A83G,0.258

row,Variant,self-cleavage
1,G35A A83U,0.507
2,G35A G40C,0.163
3,G35A C58G,0.594
4,G35A C58A,0.46
5,G35A C58U,0.478
6,G35A A42G,0.17
7,G35A G55A,0.736
8,G35A G55U,0.577
9,G35A C36U,0.0817
10,G35A C36G,0.35
11,G35A U46A,0.332
12,G35C U60C,0.237
13,G35C A78U,0.0475
14,G35C A78G,0.262
15,G35A U69C,0.591
16,G35A U69G,0.541
17,G35A G54U,0.743
18,G35C A71C,0
19,G35A C61A,0.635
20,G35A C61G,0.465
21,G35A A51U,0.496
22,G35A A51C,0.467
23,G34U U65C,0.197
24,G34U U65G,0.146

row,Variant,self-cleavage
1,G35A U79A,0.47
2,G35A C57U,0.686
3,G35A C49A,0.591
4,G35A C49U,0.596
5,G35C A77C,0.0898
6,G35C A77U,0.181
7,G35C A77G,0.18
8,G35A C86G,0.739
9,G35C C48G,0.485
10,G35C C48U,0.271
11,G35C U46C,0.185
12,G35C G54U,0.326
13,G35C G54A,0.151
14,G35C G59U,0.204
15,G35C G59C,0.424
16,G35A A77C,0.131
17,G35A A77U,0.253
18,G35A U47C,0.489
19,G35A U47G,0.443
20,G35A U37A,0.0898
21,G35A U37G,0.163
22,G35A U37C,0.396
23,G35C A70U,0.138
24,G35C A70C,0.158

row,Variant,self-cleavage
1,G35C A42U,0.0339
2,G35A G68C,0.676
3,G35A G68A,0.496
4,G35A G68U,0.584
5,G35C G40C,0.185
6,G35C A83U,0.0898
7,G35A A45G,0.443
8,G35C C41U,0.0978
9,G35A C66G,0.655
10,G35A C66A,0.415
11,G35A G38U,0.145
12,G35A G38A,0.0923
13,G35A A70G,0.491
14,G35A A70C,0.434
15,G35A A78U,0.253
16,G35A A78G,0.138
17,G35C C36U,0.108
18,G35C C36A,0.119
19,G35A G50A,0.692
20,G35A G50C,0.346
21,G35A A71U,0.389
22,G35A A71C,0.125
23,G34U U72C,0.164
24,G34U U72A,0.151

row,Variant,self-cleavage
1,G35A G73U,0.223
2,G35A G73A,0.372
3,G35A G73C,0.138
4,G35A C84U,0.464
5,G35A C84A,0.62
6,G35C U65G,0.314
7,G35C U65A,0.233
8,G35C U65C,0.219
9,G35A G52C,0.409
10,G35A G52U,0.513
11,G35A G52A,0.47
12,G35A G39A,0.219
13,G35A G39U,0.128
14,G34U U60C,0.175
15,G34U U60G,0.166
16,G35A G81C,0.188
17,G35A G81U,0.105
18,G35A G82A,0.265
19,G35A G82C,0.266
20,G35C G53U,0.204
21,G35A C44U,0.188
22,G35A C44A,0
23,G35A C44G,0.0639
24,G35C C66A,0.253

row,Variant,self-cleavage
1,G35C C66U,0.229
2,G35C C44U,0.0536
3,G35C C44A,0.0573
4,G35C C64U,0.348
5,G35C,0.254
6,G35A,0.605
7,G35A A56U,0.72
8,G35C G67C,0.0519
9,G35C G67U,0.133
10,G35C C49G,0.0449
11,G35C C49U,0.203
12,G35C G76A,0.514
13,G35C G76C,0.305
14,G35A C64A,0.379
15,G35C G73U,0.181
16,G35C G73A,0.0723
17,G35C U69A,0.443
18,G35C U69G,0.277
19,G35A U65C,0.521
20,G34U U69G,0.0361
21,G35C C86U,0.415
22,G35C G38C,0.128
23,G35C G38A,0.155
